The record followed here is the supplement of paper PMC10567573.

The labels stand for the following.
B1: KCNA4 (parent)
chain: YQLGEEALLKFREDEGFVREEEDR
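Note: lentivirally expressed fusions sorted by FACS into six bins by GFP to DsRed ratio, PSI derived from sequencing read proportions per bin multiplied by bin number.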

In this data set the parent is B1. The data set is described as follows: protein stability index of a GFP-peptide fusion (GPS, HEK-293T) (PSI 1-6); higher = more stable. The following applies: c terminus: a fixed tail appended.
Turning to YQLGEEALLLFREDEGFVREEEDR [K10L], the protein stability index stood at 3.1.
Regarding YQLGEEALLWFREDEGFVREEEDR [K10W], the protein stability index worked out at 2.25.
YQLGEEALLMFREDEGFVREEEDR [K10M]: the protein stability index is 3.59.
Take YQLGEEALLVFREDEGFVREEEDR [K10V]: the protein stability index worked out at 2.88.
For the variant YQLGEEALLHFREDEGFVREEEDR [K10H], the protein stability index stood at 4.74.
For YQLGEEALLNFREDEGFVREEEDR [K10N], the protein stability index was determined as 5.07.
With YQLGEEALLSFREDEGFVREEEDR [K10S], the protein stability index is 4.43.
As for YQLGEEALLRFREDEGFVREEEDR [K10R], the protein stability index was 4.09.
Under YQLGEEALLAFREDEGFVREEEDR [K10A] stands 4.01; under YQLGEEALLQFREDEGFVREEEDR [K10Q], 4.83.
Under YQLGEEALLGFREDEGFVREEEDR [K10G] stands 5.52; under YQLGEEALLTFREDEGFVREEEDR [K10T], 4.57; under YQLGEEALLIFREDEGFVREEEDR [K10I], 3.35.
Under YQLGEEALLCFREDEGFVREEEDR [K10C] stands 3.37; under YQLGEEALLEFREDEGFVREEEDR [K10E], 5.37.
For YQLGEEALLFFREDEGFVREEEDR [K10F], the protein stability index was determined as 1.64.
In the case of YQLGEEALLDFREDEGFVREEEDR [K10D] it was 5.55; in that of YQLGEEALLPFREDEGFVREEEDR [K10P], 5.59; in that of YQLGEEALLYFREDEGFVREEEDR [K10Y], 3.94.
For the variant YQLGEEKLLKFREDEGFVREEEDR [A7K], the protein stability index stood at 5.36.
Regarding YQLGEEDLLKFREDEGFVREEEDR [A7D], the protein stability index amounted to 4.23.
Take YQLGEEGLLKFREDEGFVREEEDR [A7G]: the protein stability index came to 4.64.
Regarding YQLGEEWLLKFREDEGFVREEEDR [A7W], the protein stability index is 1.48.
Under YQLGEENLLKFREDEGFVREEEDR [A7N] stands 4.82; under YQLGEETLLKFREDEGFVREEEDR [A7T], 4.95.
In the case of YQLGEESLLKFREDEGFVREEEDR [A7S], the protein stability index amounted to 4.52.
With YQLGEEILLKFREDEGFVREEEDR [A7I], the protein stability index is 3.99.
With YQLGEECLLKFREDEGFVREEEDR [A7C], the protein stability index worked out at 4.89.
As to YQLGEEVLLKFREDEGFVREEEDR [A7V], the protein stability index was determined as 4.33.
Under YQLGEEYLLKFREDEGFVREEEDR [A7Y] stands 4.27; under YQLGEEHLLKFREDEGFVREEEDR [A7H], 4.56; under YQLGEEELLKFREDEGFVREEEDR [A7E], 4.38.
Under YQLGEEFLLKFREDEGFVREEEDR [A7F] stands 4.43; under YQLGEEMLLKFREDEGFVREEEDR [A7M], 4.14; under YQLGEERLLKFREDEGFVREEEDR [A7R], 4.62.
In the case of YQLGEEPLLKFREDEGFVREEEDR [A7P] it was 4.59.
Regarding YQLGEELLLKFREDEGFVREEEDR [A7L], the protein stability index was determined as 4.8.
Consider YQLGEEQLLKFREDEGFVREEEDR [A7Q], for which the protein stability index turned out to be 4.1.
Consider YQLGECALLKFREDEGFVREEEDR [E6C], for which the protein stability index turned out to be 3.51.
As for YQLGEKALLKFREDEGFVREEEDR [E6K], the protein stability index turned out to be 4.
Under YQLGEMALLKFREDEGFVREEEDR [E6M] stands 3.99; under YQLGESALLKFREDEGFVREEEDR [E6S], 4.67; under YQLGEHALLKFREDEGFVREEEDR [E6H], 4.33.
As for YQLGEGALLKFREDEGFVREEEDR [E6G], the protein stability index came to 4.32.
Regarding YQLGEIALLKFREDEGFVREEEDR [E6I], the protein stability index was determined as 2.93.
As to YQLGEWALLKFREDEGFVREEEDR [E6W], the protein stability index was determined as 1.97.
As to YQLGEQALLKFREDEGFVREEEDR [E6Q], the protein stability index is 4.23.
For the variant YQLGEPALLKFREDEGFVREEEDR [E6P], the protein stability index was determined as 4.92.
YQLGELALLKFREDEGFVREEEDR [E6L]: the protein stability index worked out at 3.32.
Turning to YQLGEDALLKFREDEGFVREEEDR [E6D], the protein stability index was determined as 4.67.
In the case of YQLGERALLKFREDEGFVREEEDR [E6R], the protein stability index turned out to be 3.46.
Take YQLGEVALLKFREDEGFVREEEDR [E6V]: the protein stability index worked out at 2.93.
Take YQLGETALLKFREDEGFVREEEDR [E6T]: the protein stability index amounted to 4.32.
As for YQLGEFALLKFREDEGFVREEEDR [E6F], the protein stability index amounted to 2.4.
Take YQLGENALLKFREDEGFVREEEDR [E6N]: the protein stability index was 4.43.
On to YQLGEAALLKFREDEGFVREEEDR [E6A], for which the protein stability index came to 4.31.
For the variant YQLGEYALLKFREDEGFVREEEDR [E6Y], the protein stability index came out at 3.04.
As for YQLGEEALPKFREDEGFVREEEDR [L9P], the protein stability index was determined as 5.09.
Regarding YQLGEEALTKFREDEGFVREEEDR [L9T], the protein stability index turned out to be 5.15.
In the case of YQLGEEALMKFREDEGFVREEEDR [L9M] it was 4.84; in that of YQLGEEALRKFREDEGFVREEEDR [L9R], 4.41.
As for YQLGEEALAKFREDEGFVREEEDR [L9A], the protein stability index worked out at 4.88.
As to YQLGEEALWKFREDEGFVREEEDR [L9W], the protein stability index turned out to be 4.01.
With YQLGEEALNKFREDEGFVREEEDR [L9N], the protein stability index was 4.17.
For the variant YQLGEEALVKFREDEGFVREEEDR [L9V], the protein stability index stood at 5.15.
Turning to YQLGEEALDKFREDEGFVREEEDR [L9D], the protein stability index amounted to 5.87.
Regarding YQLGEEALYKFREDEGFVREEEDR [L9Y], the protein stability index turned out to be 5.09.
Regarding YQLGEEALGKFREDEGFVREEEDR [L9G], the protein stability index was determined as 5.03.
Take YQLGEEALFKFREDEGFVREEEDR [L9F]: the protein stability index was found to be 4.36.
As to YQLGEEALHKFREDEGFVREEEDR [L9H], the protein stability index was found to be 4.96.
Consider YQLGEEALEKFREDEGFVREEEDR [L9E], for which the protein stability index amounted to 5.37.
With YQLGEEALKKFREDEGFVREEEDR [L9K], the protein stability index came out at 4.57.
In the case of YQLGEEALQKFREDEGFVREEEDR [L9Q], the protein stability index was determined as 4.9.
Consider YQLGEEALIKFREDEGFVREEEDR [L9I], for which the protein stability index turned out to be 5.
In the case of YQLGEEALCKFREDEGFVREEEDR [L9C] it was 4.92.
As to YQLGEEALSKFREDEGFVREEEDR [L9S], the protein stability index was 5.05.
Under YQLPEEALLKFREDEGFVREEEDR [G4P] stands 5.03; under YQLREEALLKFREDEGFVREEEDR [G4R], 4.56; under YQLYEEALLKFREDEGFVREEEDR [G4Y], 4.57.
As to YQLQEEALLKFREDEGFVREEEDR [G4Q], the protein stability index was 5.08.
Turning to YQLNEEALLKFREDEGFVREEEDR [G4N], the protein stability index amounted to 4.28.
On to YQLWEEALLKFREDEGFVREEEDR [G4W], for which the protein stability index was 4.4.
For YQLMEEALLKFREDEGFVREEEDR [G4M], the protein stability index was 5.27.
Regarding YQLSEEALLKFREDEGFVREEEDR [G4S], the protein stability index worked out at 3.81.
In the case of YQLVEEALLKFREDEGFVREEEDR [G4V] it was 5.11; in that of YQLTEEALLKFREDEGFVREEEDR [G4T], 4.12; in that of YQLGEEALLKEREDEGFVREEEDR [F11E], 5.67.
On to YQLGEEALLKLREDEGFVREEEDR [F11L], for which the protein stability index is 5.38.
Consider YQLGEEALLKSREDEGFVREEEDR [F11S], for which the protein stability index was 5.44.
YQLGEEALLKRREDEGFVREEEDR [F11R]: the protein stability index was determined as 5.8.
YQLGEEALLKMREDEGFVREEEDR [F11M]: the protein stability index was determined as 4.44.
YQLGEEALLKVREDEGFVREEEDR [F11V]: the protein stability index was 5.35.
Regarding YQLGEEALLKAREDEGFVREEEDR [F11A], the protein stability index was 4.72.
Under YQLGEEALLKPREDEGFVREEEDR [F11P] stands 5.57.
